Assay results reported in article PMC4321167 (2015).

Target: T1, GST-FD (Arabidopsis thaliana (Mouse-ear cress), UniProt Q84JK2)
T1 chain: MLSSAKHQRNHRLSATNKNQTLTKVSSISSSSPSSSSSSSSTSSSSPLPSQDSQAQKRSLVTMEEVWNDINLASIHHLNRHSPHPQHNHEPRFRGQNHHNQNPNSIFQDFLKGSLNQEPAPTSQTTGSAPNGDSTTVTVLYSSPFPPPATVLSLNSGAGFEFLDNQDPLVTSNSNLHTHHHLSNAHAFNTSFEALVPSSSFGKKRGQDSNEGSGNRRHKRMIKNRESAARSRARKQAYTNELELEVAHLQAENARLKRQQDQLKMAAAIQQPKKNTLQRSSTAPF
Assay: GST pull-down

Binder	binding result
Trx-His-CPK6 (protein) MGNSCRGSFKDKIYEGNHSRPEENSKSTTTTVSSVHSPTTDQDFSKQNTNPALVIPVKEPIMRRNVDNQSYYVLGHKTPNIRDLYTLSRKLGQGQFGTTYLCTDIATGVDYACKSISKRKLISKEDVEDVRREIQIMHHLAGHKNIVTIKGAYEDPLYVHIVMELCAGGELFDRIIHRGHYSERKAAELTKIIVGVVEACHSLGVMHRDLKPENFLLVNKDDDFSLKAIDFGLSVFFKPGQIFKDVVGSPYYVAPEVLLKHYGPEADVWTAGVILYILLSGVPPFWAETQQGIFDAVLKGYIDFDTDPWPVISDSAKDLIRKMLCSSPSERLTAHEVLRHPWICENGVAPDRALDPAVLSRLKQFSAMNKLKKMALKVIAESLSEEEIAGLRAMFEAMDTDNSGAITFDELKAGLRRYGSTLKDTEIRDLMEAADVDNSGTIDYSEFIAATIHLNKLEREEHLVSAFQYFDKDGSGYITIDELQQSCIEHGMTDVFLEDIIKEVDQDNDGRIDYEEFVAMMQKGNAGVGRRTMKNSLNISMRDV	binds
Trx-His-CPK33 (protein) not shown	binds
